The nature of series [1]: In vitro enzyme kinetics of PMDsc variants (pyruvate kinase/lactate dehydrogenase coupled assay). The series is classed as biochemical.
Series [2] deals with E. coli DH1. As to the kind of experiment: Growth of E. coli DH1 under the screening conditions (MEP pathway blocked by fosmidomycin, IPP-bypass pathway + IPK).
In series [3] the test system is E. coli DH1. As to the kind of experiment: Isopentenol production in E. coli via IPP-bypass MVA pathway (GC-FID). The series is classed as cell-based, Escherichia coli.
Setting [4] is: Table 2, MVAP 0.100-4.0 mM, standard error in brackets.
The mark [5] stands for this setting: Table 2, MVAP, standard error in brackets.
Where [6] appears, read: Table 2, screening conditions, standard deviation in brackets.
[7] abbreviates: compared with wild type or library mutants.

Values joined by “and” are separate entries in the source; they are usually repeats but may differ in a detail not shown here. Equal values may be shown once.

B1: V230E: PMDsc mutant V230E (protein)
chain: MTVYTASVTAPVNIATLKYWGKRDTKLNLPTNSSISVTLSQDDLRTLTSAATAPEFERDTLWLNGEPHSIDNERTQNCLRDLRQLRKEMESKDASLPTLSQWKLHIVSENNFPTAAGLASSAAGFAALVSAIAKLYQLPQSTSEISRIARKGSGSACRSLFGGYVAWEMGKAEDGHDSMAVQIADSSDWPQMKACVLVVSDIKKDVSSTQGMQLTVATSELFKERIEHVEPKRFEVMRKAIVEKDFATFAKETMMDSNSFHATCLDSFPPIFYMNDTSKRIISWCHTINQFYGETIVAYTFDAGPNAVLYYLAENESKLFAFIYKLFGSVPGWDKKFTTEQLEAFNHQFESSNFTARELDLELQKDVARVILTQVGSGPQETNESLIDAKTGLPKE
Take B1: in series [1] (MVAP up to 100 mM, read-out: KI (substrate inhibition)), the Ki is 10 mM. Also, the kcat was 0.07 (0.01) sec^−1 in series [1] (setting [4]) and 0.07 s⁻¹ in series [1] (Table 3). Moreover, the Km in series [1] (setting [5]) and in series [1] (Table 3) was 800 µM each time. Also, in series [1] (Table 3, observed turnover number calculated at 100 mM MVAP), the kobs is 0.006 s⁻¹. Moreover, the Growth rate was 0.21 (0.18) hr^−1 in the series with E. coli DH1 [2] (setting [6]) and 0.2 h⁻¹ in the series with E. coli DH1 [2] (Table 3). Besides, in the series on E. coli DH1 [3], the “48 hr Titer (isopentenol)” value is 278 (91) mg/L and 278 mg/L.

B2: K22Y: PMDsc mutant K22Y (protein)
chain: MTVYTASVTAPVNIATLKYWGYRDTKLNLPTNSSISVTLSQDDLRTLTSAATAPEFERDTLWLNGEPHSIDNERTQNCLRDLRQLRKEMESKDASLPTLSQWKLHIVSENNFPTAAGLASSAAGFAALVSAIAKLYQLPQSTSEISRIARKGSGSACRSLFGGYVAWEMGKAEDGHDSMAVQIADSSDWPQMKACVLVVSDIKKDVSSTQGMQLTVATSELFKERIEHVVPKRFEVMRKAIVEKDFATFAKETMMDSNSFHATCLDSFPPIFYMNDTSKRIISWCHTINQFYGETIVAYTFDAGPNAVLYYLAENESKLFAFIYKLFGSVPGWDKKFTTEQLEAFNHQFESSNFTARELDLELQKDVARVILTQVGSGPQETNESLIDAKTGLPKE
With B2, the Growth rate in the series with E. coli DH1 [2] (setting [6]) is reported as 0.13 (0.11) hr^−1. In the series with E. coli DH1 [3], the “48 hr Titer (isopentenol)” value is listed as 22 (8) mg/L. This molecule also showed an isopentenol titer with E. coli DH1 [3] (text and figure legends, 48 hours after induction) of 22 ± 8 mg/L.

B3: R74G-E144D (protein)
chain: MTVYTASVTAPVNIATLKYWGKRDTKLNLPTNSSISVTLSQDDLRTLTSAATAPEFERDTLWLNGEPHSIDNEGTQNCLRDLRQLRKEMESKDASLPTLSQWKLHIVSENNFPTAAGLASSAAGFAALVSAIAKLYQLPQSTSDISRIARKGSGSACRSLFGGYVAWEMGKAEDGHDSMAVQIADSSDWPQMKACVLVVSDIKKDVSSTQGMQLTVATSELFKERIEHVVPKRFEVMRKAIVEKDFATFAKETMMDSNSFHATCLDSFPPIFYMNDTSKRIISWCHTINQFYGETIVAYTFDAGPNAVLYYLAENESKLFAFIYKLFGSVPGWDKKFTTEQLEAFNHQFESSNFTARELDLELQKDVARVILTQVGSGPQETNESLIDAKTGLPKE
As for B3, the “isopentenol titer relative to wild type” value in the series on E. coli DH1 [3] is listed as 1.6 fold.

B4: R74G-R147K-Q140L: PMDsc triple mutant (protein)
chain: MTVYTASVTAPVNIATLKYWGKRDTKLNLPTNSSISVTLSQDDLRTLTSAATAPEFERDTLWLNGEPHSIDNEGTQNCLRDLRQLRKEMESKDASLPTLSQWKLHIVSENNFPTAAGLASSAAGFAALVSAIAKLYQLPLSTSEISKIARKGSGSACRSLFGGYVAWEMGKAEDGHDSMAVQIADSSDWPQMKACVLVVSDIKKDVSSTQGMQLTVATSELFKERIEHVVPKRFEVMRKAIVEKDFATFAKETMMDSNSFHATCLDSFPPIFYMNDTSKRIISWCHTINQFYGETIVAYTFDAGPNAVLYYLAENESKLFAFIYKLFGSVPGWDKKFTTEQLEAFNHQFESSNFTARELDLELQKDVARVILTQVGSGPQETNESLIDAKTGLPKE
Turning to B4, the kcat in series [1] (setting [4]) was 0.06 (0.01) sec^−1. In series [1] (setting [5]), the Km worked out at 2000 µM. Also, in the series on E. coli DH1 [3], the “48 hr Titer (isopentenol)” value is 401 (10) mg/L.

B5: E144D (protein)
chain: MTVYTASVTAPVNIATLKYWGKRDTKLNLPTNSSISVTLSQDDLRTLTSAATAPEFERDTLWLNGEPHSIDNERTQNCLRDLRQLRKEMESKDASLPTLSQWKLHIVSENNFPTAAGLASSAAGFAALVSAIAKLYQLPQSTSDISRIARKGSGSACRSLFGGYVAWEMGKAEDGHDSMAVQIADSSDWPQMKACVLVVSDIKKDVSSTQGMQLTVATSELFKERIEHVVPKRFEVMRKAIVEKDFATFAKETMMDSNSFHATCLDSFPPIFYMNDTSKRIISWCHTINQFYGETIVAYTFDAGPNAVLYYLAENESKLFAFIYKLFGSVPGWDKKFTTEQLEAFNHQFESSNFTARELDLELQKDVARVILTQVGSGPQETNESLIDAKTGLPKE
For B5, the “isopentenol titer” value with E. coli DH1 [3] (setting [7]) is listed as “increased isopentenol production titers”.

B6: S155E (protein)
chain: MTVYTASVTAPVNIATLKYWGKRDTKLNLPTNSSISVTLSQDDLRTLTSAATAPEFERDTLWLNGEPHSIDNERTQNCLRDLRQLRKEMESKDASLPTLSQWKLHIVSENNFPTAAGLASSAAGFAALVSAIAKLYQLPQSTSEISRIARKGSGEACRSLFGGYVAWEMGKAEDGHDSMAVQIADSSDWPQMKACVLVVSDIKKDVSSTQGMQLTVATSELFKERIEHVVPKRFEVMRKAIVEKDFATFAKETMMDSNSFHATCLDSFPPIFYMNDTSKRIISWCHTINQFYGETIVAYTFDAGPNAVLYYLAENESKLFAFIYKLFGSVPGWDKKFTTEQLEAFNHQFESSNFTARELDLELQKDVARVILTQVGSGPQETNESLIDAKTGLPKE
In the case of B6, the “growth under fosmidomycin selection pressure” value in the series with E. coli DH1 [2] (screening platform) is on record as “impaired growth”.

B7: R74G-R147K: PMDsc double mutant (protein)
chain: MTVYTASVTAPVNIATLKYWGKRDTKLNLPTNSSISVTLSQDDLRTLTSAATAPEFERDTLWLNGEPHSIDNEGTQNCLRDLRQLRKEMESKDASLPTLSQWKLHIVSENNFPTAAGLASSAAGFAALVSAIAKLYQLPQSTSEISKIARKGSGSACRSLFGGYVAWEMGKAEDGHDSMAVQIADSSDWPQMKACVLVVSDIKKDVSSTQGMQLTVATSELFKERIEHVVPKRFEVMRKAIVEKDFATFAKETMMDSNSFHATCLDSFPPIFYMNDTSKRIISWCHTINQFYGETIVAYTFDAGPNAVLYYLAENESKLFAFIYKLFGSVPGWDKKFTTEQLEAFNHQFESSNFTARELDLELQKDVARVILTQVGSGPQETNESLIDAKTGLPKE
For the molecule B7, the kcat in series [1] (setting [4]) is 0.22 (0.01) sec^−1. Moreover, the Michaelis constant (Km) in series [1] (setting [5]) turned out to be 530 µM. In addition, the Growth rate in the series on E. coli DH1 [2] (setting [6]) was 0.84 (0.04) hr^−1. Further, in the series with E. coli DH1 [3], the “isopentenol titer relative to wild type” value came to 1.9 fold and the “48 hr Titer (isopentenol)” value is listed as 909 (25) mg/L.

B8: Q140L (protein)
chain: MTVYTASVTAPVNIATLKYWGKRDTKLNLPTNSSISVTLSQDDLRTLTSAATAPEFERDTLWLNGEPHSIDNERTQNCLRDLRQLRKEMESKDASLPTLSQWKLHIVSENNFPTAAGLASSAAGFAALVSAIAKLYQLPLSTSEISRIARKGSGSACRSLFGGYVAWEMGKAEDGHDSMAVQIADSSDWPQMKACVLVVSDIKKDVSSTQGMQLTVATSELFKERIEHVVPKRFEVMRKAIVEKDFATFAKETMMDSNSFHATCLDSFPPIFYMNDTSKRIISWCHTINQFYGETIVAYTFDAGPNAVLYYLAENESKLFAFIYKLFGSVPGWDKKFTTEQLEAFNHQFESSNFTARELDLELQKDVARVILTQVGSGPQETNESLIDAKTGLPKE
Consider B8, for which the “isopentenol titer” value in the series with E. coli DH1 [3] (setting [7]) is “increased isopentenol production titers”.

As a reminder, the Km is the concentration of substrate that gives half-maximal velocity.

(Values after US11001838B2, “Platform for screening phosphomevalonate decarboxylase” (The Regents of the University of California, priority 2017, dated 2021).)
